B1: Twister Ribozyme (parent)
chain: AACACUGCCAAUGCCGGUCCCAAGCCCGGAUAAAAGUGGAGGGGGCGG

Variants of: B1
Assay: self-cleavage, relative activity (ratio to wild type); higher = more cleavage; co-transcriptional

Variant	self-cleavage
A30G G44C	1.02
A30G G44U	0.887
A30G G45C	0.571
A30G G47A	0.817
A30G G47U	0.877
A30G G48C	1.13
A30G G48U	0.96
A30G U31A	0.744
A30G U31G	1.02
A30G U37A	0.901
A30G U37C	0.486
A30U A32C	0.945
A30U A32U	0.879
A30U A33C	0.847
A30U A34G	0.937
A30U A34U	0.85
A30U C46A	0.872
A30U C46G	0.931
A30U G36A	0.762
A30U G36U	0.294
A30U G38A	0.987
A30U G39A	0.614
A30U G39C	0.185
A30U G39U	0.212

Variant	self-cleavage
A30U G41C	0.286
A30U G41U	0.712
A30U G42A	0.464
A30U G43A	0.278
A30U G44A	0.971
A30U G44C	0.963
A30U G45A	0.817
A30U G45C	0.661
A30U G45U	0.798
A30U G47A	0.927
A30U G47U	0.954
A30U G48A	1
A30U G48U	1.09
A30U U31C	1.02
A30U U31G	0.993
A30U U37G	0.912
U31A	0.751
U31A A32C	1.09
U31A A32U	1.05
U31A A33G	0.82
U31A A33U	0.935
U31A A34G	0.853
U31A A34U	1.07
U31A A35C	0.889

Variant	self-cleavage
U31A A35G	0.803
U31A A35U	1.09
U31A A40G	0.0937
U31A A40U	0.136
U31A C46G	0.763
U31A C46U	0.582
U31A G38A	0.509
U31A G38C	0.801
U31A G38U	0.692
U31A G39U	0.168
U31A G41U	0.55
U31A G42A	0.349
U31A G42C	0.503
U31A G44C	0.711
U31A G45A	0.727
U31A G45U	0.619
U31A U37A	0.721
U31A U37C	0.591
U31A U37G	0.659
U31C	1.01
U31C A32U	1.02
U31C A33C	0.925
U31C A34G	0.664
U31C A35C	1.03

Variant	self-cleavage
U31C A35G	0.682
U31C A40C	0.249
U31C A40G	0.0669
U31C C46A	0.733
U31C C46G	0.923
U31C C46U	0.788
U31C G36C	0.635
U31C G36U	0.321
U31C G38C	0.842
U31C G39A	0.456
U31C G39C	0.111
U31C G41A	0.539
U31C G41C	0.306
U31C G42U	0.407
U31C G43A	0.323
U31C G43C	0.194
U31C G44A	1.1
U31C G44C	0.976
U31C G45A	0.965
U31C G47A	0.926
U31C G48U	1.11
U31G	0.933
U31G A32C	0.946
U31G A32G	0.836

Variant	self-cleavage
U31G A33C	1.03
U31G A33U	0.876
U31G A34G	0.894
U31G A34U	0.904
U31G A35U	1.01
U31G A40U	0.199
U31G C46G	0.852
U31G C46U	0.928
U31G G36U	0.374
U31G G38C	0.894
U31G G39U	0.203
U31G G41A	0.574
U31G G42A	0.497
U31G G42C	0.699
U31G G43C	0.18
U31G G43U	0.467
U31G G44A	0.825
U31G G44C	0.974
U31G G45C	0.653
U31G G45U	0.883
U31G G47A	0.782
U31G G47C	0.755
U31G G48A	0.992
U31G G48U	0.938

Variant	self-cleavage
U31G U37A	0.818
U31G U37C	0.634
A32C A33G	0.945
A32C A34C	0.329
A32C A35C	0.911
A32C A35U	1.05
A32C A40C	0.159
A32C C46A	0.837
A32C C46G	1.03
A32C G36A	0.473
A32C G36C	0.283
A32C G38U	0.723
A32C G39A	0.586
A32C G39C	0.079
A32C G39U	0.235
A32C G42U	0.266
A32C G43A	0.242
A32C G43C	0.153
A32C G44A	0.881
A32C G44C	1.03
A32C G44U	0.936
A32C G47A	0.764
A32C G47C	0.556
A32C G47U	0.783

Variant	self-cleavage
A32C U37A	0.732
A32C U37C	0.494
A32G A33G	0.654
A32G A34C	0.137
A32G A35C	0.914
A32G A40G	0.147
A32G C46A	0.753
A32G C46G	0.854
A32G C46U	0.933
A32G G36A	0.618
A32G G38A	0.846
A32G G38C	0.892
A32G G41A	0.518
A32G G41C	0.211
A32G G41U	0.609
A32G G42A	0.319
A32G G42C	0.38
A32G G42U	0.357
A32G G43C	0.0899
A32G G44A	0.929
A32G G44C	0.907
A32G G45A	0.921
A32G G45U	0.668
